Results reported in patent publication US20100160228.

Target: VEGFR2 (vascular endothelial growth factor receptor 2), expressed from plasmid in HEK293 cells, P35968
Sequence (P35968 20-1356): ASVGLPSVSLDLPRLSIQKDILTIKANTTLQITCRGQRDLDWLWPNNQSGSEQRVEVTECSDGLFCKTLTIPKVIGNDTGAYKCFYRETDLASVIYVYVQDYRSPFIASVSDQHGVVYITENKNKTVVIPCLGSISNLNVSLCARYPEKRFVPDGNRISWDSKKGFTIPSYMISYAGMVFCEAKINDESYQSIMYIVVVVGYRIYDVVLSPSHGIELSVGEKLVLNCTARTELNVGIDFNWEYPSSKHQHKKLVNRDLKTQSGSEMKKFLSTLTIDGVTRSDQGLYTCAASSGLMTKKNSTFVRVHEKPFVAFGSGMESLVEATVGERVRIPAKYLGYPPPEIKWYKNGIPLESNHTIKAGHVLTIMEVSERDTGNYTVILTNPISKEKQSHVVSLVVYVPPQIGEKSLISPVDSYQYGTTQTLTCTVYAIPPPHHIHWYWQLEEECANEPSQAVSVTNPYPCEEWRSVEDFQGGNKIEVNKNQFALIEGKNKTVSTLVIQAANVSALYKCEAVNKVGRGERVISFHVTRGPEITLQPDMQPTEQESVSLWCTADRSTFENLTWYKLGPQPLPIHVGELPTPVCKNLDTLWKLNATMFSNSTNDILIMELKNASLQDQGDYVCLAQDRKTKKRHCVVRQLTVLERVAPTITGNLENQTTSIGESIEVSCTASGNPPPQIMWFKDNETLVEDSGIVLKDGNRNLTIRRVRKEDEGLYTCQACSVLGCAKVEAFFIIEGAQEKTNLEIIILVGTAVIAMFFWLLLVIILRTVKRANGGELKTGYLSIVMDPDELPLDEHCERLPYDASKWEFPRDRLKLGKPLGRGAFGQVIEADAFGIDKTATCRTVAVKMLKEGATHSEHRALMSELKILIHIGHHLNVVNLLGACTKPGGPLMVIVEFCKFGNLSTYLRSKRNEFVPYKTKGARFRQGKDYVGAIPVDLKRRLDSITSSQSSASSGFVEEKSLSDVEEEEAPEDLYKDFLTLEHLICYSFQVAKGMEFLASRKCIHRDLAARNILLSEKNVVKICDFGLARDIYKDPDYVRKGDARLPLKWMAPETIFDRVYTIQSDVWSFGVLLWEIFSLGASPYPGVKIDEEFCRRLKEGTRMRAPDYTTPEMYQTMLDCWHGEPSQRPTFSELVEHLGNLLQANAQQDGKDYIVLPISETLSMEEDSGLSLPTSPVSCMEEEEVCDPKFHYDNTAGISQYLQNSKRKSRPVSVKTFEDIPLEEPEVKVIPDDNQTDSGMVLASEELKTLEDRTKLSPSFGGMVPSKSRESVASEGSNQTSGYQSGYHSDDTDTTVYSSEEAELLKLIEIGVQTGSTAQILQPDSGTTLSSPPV

B1: recombinant, purified TCPTP (T-cell protein tyrosine phosphatase) (protein)
chain: MPTTIEREFEELDTQRRWQPLYLEIRNESHDYPHRVAKFPENRNRNRYRDVSPYDHSRVKLQNAENDYINASLVDIEEAQRSYILTQGPLPNTCCHFWLMVWQQKTKAVVMLNRIVEKESVKCAQYWPTDDQEMLFKETGFSVKLLSEDVKSYYTVHLLQLENINSGETRTISHFHYTTWPDFGVPESPASFLNFLFKVRESGSLNPDHGPAVIHCSAGIGRSGTFSLVDTCLVLMEKGDDINIKQVLLNMRKYRMGLIQTPDQLRFSYMAIIEGAKCIKGDSSIQKRWKELSKEDLSPAFDHSPNKIMTEKYNGNRIGLEEEKLTGDRCTGLSSKMQDTMEENSESALRKRIREDRKATTAQKVQQMKQRLNENERKRKRPRLTDT
in vitro dephosphorylation of VEGFR2 tyrosines 996, 1175 and 1214: TCPTP showed a striking specificity to two tyrosine residues studied (Y1214 and Y996), while tyrosine 1175 was not a TCPTP target | in vitro dephosphorylation of isolated VEGFR2 (immunoblot with phospho-specific VEGFR2 antibodies): purified, recombinant TCPTP was able to dephosphorylate isolated VEGFR2 in vitro
